Our source for the Kd values is paper PMC3268024, “Role of Linkers between Zinc Fingers in Spacing Recognition by Plant TFIIIA-Type Zinc-Finger Proteins”.

T1: ZPT2-14ZF (UniProt O22086 41-117)
T1 sequence: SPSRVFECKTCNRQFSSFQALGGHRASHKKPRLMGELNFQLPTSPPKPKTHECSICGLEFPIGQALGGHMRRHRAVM

B1: AGT-5-AGT (dsDNA)
DNA 1: CTCGAGAAATTTCCCGGAATTCCAGTGATCCAGTGGCCGGAATTTCCCGGGGGGATCC
DNA 2: GGATCCCCCCGGGAAATTCCGGCCACTGGATCACTGGAATTCCGGGAAATTTCTCGAG
B2: AGT-5-ACT (dsDNA)
DNA 1: CTCGAGAAATTTCCCGGAATTCCAGTGATCCACTGGCCGGAATTTCCCGGGGGGATCC
DNA 2: GGATCCCCCCGGGAAATTCCGGCCAGTGGATCACTGGAATTCCGGGAAATTTCTCGAG
B3: AGT-10-ACT (dsDNA)
DNA 1: CTCGAGAAATTTCCCGGAATTCCAGTGGGAAATTTCACTGGCCGGAATTTCCCGGGGGGATCC
DNA 2: GGATCCCCCCGGGAAATTCCGGCCAGTGAAATTTCCCACTGGAATTCCGGGAAATTTCTCGAG
B4: ACT-10-AGT (dsDNA)
DNA 1: CTCGAGAAATTTCCCGGAATTCCACTGGGAAATTTCAGTGGCCGGAATTTCCCGGGGGGATCC
DNA 2: GGATCCCCCCGGGAAATTCCGGCCACTGAAATTTCCCAGTGGAATTCCGGGAAATTTCTCGAG

This series has as its target T1, ZPT2-14ZF. Nature of the series: EMSA; 25 mM HEPES-KOH pH 7.6, 40 mM KCl, 0.1% NP-40, 10 uM ZnCl2, 1 mg/mL BSA, 10% glycerol, 10 ug/mL poly(dI-dC), 1 mM DTT, 0.15 nM probe, 25 min at 20 C. The conditions noted are these: protein: recombinant; tags: MBP fusion cleaved with TEV protease; untagged; label: 32P end.
For orientation: Kd means the equilibrium constant for the complex coming apart. As to B1, the Kd is 9.1 ± 1.2 nM.
Then B2, with 21.7 ± 3.4 nM; and B3, with 10.4 ± 1.6 nM.
In the case of B4 it was 11.6 ± 1.9 nM.
